Data as given in paper doi:10.1101/2022.06.27.497739.
Like-named read-outs stand apart in the source and are kept apart here.

How the values were obtained:
[1] = biological target: Rpt1-I191AzF-Cy3 base (budding yeast (S. cerevisiae)) (UniProt P33299); test: FRET or BRET
[2] = biological target: Rpt1-I191AzF-Cy3 base (budding yeast (S. cerevisiae)) (UniProt P33299); test: FRET or BRET; remark: listed apart in the source

time constant (τ) of tail engagement [1]: 10.4 s | time constant (τ) of tail engagement [2]: 16.4 s
Substance: polyubiquitinated titin-I27^V15P-Tail substrate labeled with Cy5 on its unstructured initiation domain (from UniProt P0CG63 1-76)
